Consider one molecule from US6670183B2, “88kDa tumorigenic growth factor and antagonists” (A & G Pharmaceutical, Inc., priority 1997, dated 2003).

Read-outs that look alike come from different tables or passages of the source.

In test [1] the test system is mouse mammary epithelial cell line C57MG. Description: DNA synthesis (^3H-thymidine incorporation) in serum-starved C57MG cells. The format is cell-based. The procedure:
We investigated the effect of GP88 on the proliferation of a variety of cell lines including fibroblasts and mammary epithelial cells.
The ability of GP88 purified from PC cells (upper panel) and recombinant GP88, rGP88 (lower panel), to stimulate DNA synthesis in C57MG cells was measured by incorporation of ^3H-thymidine in serum-starved quiescent cells.
In general terms: Incorporation of labelled thymidine or its analogues reports DNA synthesis.

Test [2] has as its system GP88 cell surface receptors on CCL64 cells. Description: ^125I-GP88 binding to CCL64 cells, Scatchard analysis. Also noted: species or system mink. The conditions noted are these: 2 hours at 25° C. The protocol:
Recombinant GP88 (rGP88) was iodinated by the chloramine T method at 4° C. Other known methods can also be applied. Briefly, 1 μg of GP88 was incubated for 2 min with ^125I Na (100 μCi) that had been preincubated for 90 seconds with 2 μg chloramine T. The reaction was quenched with the addition of 100 μl saturated tyrosine, 10 μl of a 1% solution of bovine serum albumin (BSA) and 2 μg of sodium metabisulfite. After addition of 100 μl PBS, the iodinated protein was separated from free Na^125I by gel filtration on a Sephadex-G50 column that had been preincubated with PBS containing 1% bovine serum albumin and then extensively washed with PBS to reduce non-specific binding. The labeled proteins were eluted with PBS and fractions monitored for radioactivity. Amount of incorporated radioactivity was estimated by TCA precipitation. Specific activity of ^125I-GP88 was typically 30-50 μCi/μg. […]
The example provided here describes binding assay with the mink lung epithelial cell line CCL64 but has also been applied to several cell lines including the 1246, PC cell lines and the mammary epithelial cell line C57MG. […] The cells were harvested by centrifugation, washed with culture medium and counted with a hemocytometer. […] Cell pellets were counted with a gamma counter. […]

B1: rGP88: recombinant mouse GP88 expressed in baculovirus infected Sf9 insect cells; iodinated as binding ligand (protein)
chain: TQCPDGQFCPVACCLDQGGANYSCCNPLLDTWPRITSHHLDGSCQTHGHCPAGYSCLLTVSGTSSCCPFSKGVSCGDGYHCCPQGFHCSADGKSCFQMSDNPLGAVQCPGSQFECPDSATCCIMVDGSWGCCPMPQASCCEDRVHCCPHGASCDLVHTRCVSPTGTHTLLKKFPAQKTNSAVSLPFSVVCPDAKTQCPDDSTCCELPTGKYGCCPMPNAICCSDHLHCCPQDTVCDLIQSKCLSKNYTTDLLTKLPGYPVKEVKCDMEVSCPEGYTCCRLNTGAWGCCPFAKAVCCDDHIHCCPAGFQCHTEKGTCEMGILQVGWMKKVIAPLRLPDPQILKSDTPCDDFTRCPTNNTCCKLNSGDWGCCPIPEAVCCSDNQHCCPQGFTCLAQGYCQKGDTMVAGLEKIPARQTTPLQIGDIGCDQHTSCPVGQTCCPSLKGSWACCQLPHAVCCEDRQHCCPAGYTCNVKARTCEKDVDFIQPPVLLTLGPKVGNVECGEGHFCHDNQTCCKDSAGVWACCPYLKGVCCRDGRHCCPGGFHCSARGTKCLRKKIPRWDMFLRDPVPRPLL
For the molecule B1, the “increase in DNA synthesis” value in test [1] (150 ng/ml (2 nM)) is 5 fold. In test [1] (FIG. 6), the “biological activity compared with PC cell derived GP88” value was “identical to that of GP88 purified from PC cells”. Further, the Kd – broadly, the equilibrium constant for the complex coming apart – in test [2] (read-out: Kd, high affinity class of receptors) was 0.043 nM; in test [2] (read-out: Kd, low affinity class of receptors), 3.9 nM.
